Data reported in patent US20230212239A1, “INHIBITORS OF CBL AUTOINHIBITION AND RELATED METHODS” (THE HOSPITAL FOR SICK CHILDREN, priority 2020, published 2023).

T1: CBL (47-357) S226E (UniProt P22681 47-357)
T1 construct: range 47-357; Point mutant within Duet-His-Δlinker-hSLAP2-CBL; also called S226E (CBL mutant)
T1 sequence (looked up): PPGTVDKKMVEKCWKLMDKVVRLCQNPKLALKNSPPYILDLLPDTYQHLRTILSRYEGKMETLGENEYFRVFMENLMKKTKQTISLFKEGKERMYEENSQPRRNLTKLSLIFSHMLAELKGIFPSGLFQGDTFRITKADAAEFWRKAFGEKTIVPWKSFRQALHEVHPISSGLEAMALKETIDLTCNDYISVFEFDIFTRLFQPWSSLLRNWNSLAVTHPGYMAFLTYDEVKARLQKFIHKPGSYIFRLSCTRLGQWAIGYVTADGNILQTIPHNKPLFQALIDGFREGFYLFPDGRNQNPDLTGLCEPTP

T2: CBL G306E (Homo sapiens, UniProt P22681, G306E)
T2 construct: Residues 25-357 and 2-436 of CBL were cloned in frame into pGEX4T-1; GST (N, cleaved yes); made in house; host or cells: E. coli BL-21
T2 sequence (P22681 2-436 G306E): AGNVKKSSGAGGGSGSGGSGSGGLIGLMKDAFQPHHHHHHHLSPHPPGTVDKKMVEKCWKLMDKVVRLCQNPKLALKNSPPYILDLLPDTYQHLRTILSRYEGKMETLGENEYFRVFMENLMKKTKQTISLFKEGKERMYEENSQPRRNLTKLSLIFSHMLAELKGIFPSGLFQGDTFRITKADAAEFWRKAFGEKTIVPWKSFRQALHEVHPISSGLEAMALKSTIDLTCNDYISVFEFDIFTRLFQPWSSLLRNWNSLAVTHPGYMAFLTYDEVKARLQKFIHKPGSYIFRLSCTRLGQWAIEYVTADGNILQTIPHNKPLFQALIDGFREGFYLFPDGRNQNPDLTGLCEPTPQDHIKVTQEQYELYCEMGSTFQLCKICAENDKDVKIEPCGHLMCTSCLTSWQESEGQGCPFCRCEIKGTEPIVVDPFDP


Tests used:
CBL (47-357) S226E = biological target: T1, CBL (47-357) S226E; assay: Ni-NTA co-purification from Duet co-expression, high salt (0.5 M NaCl), Coomassie SDS-PAGE
Procedure: Cell pellets were resuspended in either high or low salt (as for high salt except 25 mM HEPEs pH 7.5, 150 mM NaCl) lysis buffer and purified as above on Ni-NTA agarose (Qiagen) with wash buffer (25 mM HEPEs pH 7.5, 150 mM NaCl, 2% glycerol, 20 mM imidazole, 10 mM βME). Bead slurry was mixed with SDS 2X loading buffer (125 mM Tris pH 6.8, 4% SDS, 20% glycerol, 0.715 M βME, bromophenol blue), boiled, and analyzed by 10 or 12.5% SDS-PAGE, stained with Coomassie blue.

CBL G306E = biological target: T2, CBL G306E; assay: In vitro ubiquitination assays with CBL mutant G306E; assay type: biochemical; details: CBL mutant that abolishes phospho-tyrosine binding
Procedure: Thus, we tested whether the ability of SLAP2 to promote CBL ubiquitination activity is influenced by canonical TKBD-phospho-tyrosine interactions.
In vitro ubiquitination reactions were prepared with 20 pmol of CBL or pCBL and 60 pmol of hSLAP2 or phosphorylated hSLAP2 (pSLAP2) for both WT and mutants. Reagents were thawed and reactions prepared on ice. […]
Ubiquitination reactions were set up as above (25 µL total volume) in triplicate and diluted with reaction buffer after completion (1:40 for pCBL, 1:15 for all other reactions). […] Wells were washed four times with PBS-T and 25 µL of prepared Immobilon Western Chemiluminescent HRP Substrate (Millipore #P90719) added to each well immediately prior to the plate being read on a Synergy Neo2 Plate Reader (BioTek Instruments). […] Standard deviation of the reaction averages was calculated and used as a measure of error. Each reaction set was analyzed at least twice with fresh protein purifications.

binding result (CBL (47-357) S226E) | Molecule | CBL G306E ubiquitination activity (CBL G306E)
no binding | Trx-His(6)-Δlinker-hSLAP2 (human SLAP2 29-261) (other, also called Trx-His-SLAP2; SLAP2 WT; not shown: N-terminal thioredoxin (Trx)-His(6)-TEV-site tag and linker of the modified pET32a (Δlinker version)) EAERSKATAVALGSFPAGGPAELSLRLGEPLTIVSEDGDWWTVLSEVSGREYNIPSVHVAKVSHGWLYEGLSREKAEELLLLPGNPGGAFLIRESQTRRGSYSLSVRLSRPASWDRIRHYRIHCLDNGWLYISPRLTFPSLQALVDHYSELADDICCLLKEPCVLQRAGPLPGKDIPLPVTVQRTPLNWKELDSSLLFSEAATGEESLLSEGLRESLSFYISLNDEAVSLDDA | –
– | pSLAP2: tyrosine phosphorylated SLAP2 expressed in TKB1 cells (protein, UniProt Q9H6Q3 2-261, looked up, tyrosine phosphorylated, tyrosine phosphorylated SLAP2 expressed in TKB1 cells) Src-like-adapter 2: GSLPSRRKSLPSPSLSSSVQGQGPVTMEAERSKATAVALGSFPAGGPAELSLRLGEPLTIVSEDGDWWTVLSEVSGREYNIPSVHVAKVSHGWLYEGLSREKAEELLLLPGNPGGAFLIRESQTRRGSYSLSVRLSRPASWDRIRHYRIHCLDNGWLYISPRLTFPSLQALVDHYSELADDICCLLKEPCVLQRAGPLPGKDIPLPVTVQRTPLNWKELDSSLLFSEAATGEESLLSEGLRESLSFYISLNDEAVSLDDA | stimulated CBL G306E ubiquitination activity
